The results in this text go back to article PMC4300268.

By stoichiometry N is commonly meant the number of molecules, sites or subunits per partner or assembly.

In the experiment the target is Plu4264 from Photorhabdus luminescens subsp. laumondii TTO1 (Photorhabdus luminescens subsp. laumondii TTO1). The experiment can be described thus: crystal structure.

As to “Plu4264 from Photorhabdus luminescens subsp. laumondii TTO1 (natural protein)”, the stoichiometry N is 2.
